From patent US20220348651A1 (Novartis, published 2022)
Where a chain is given by its changes, count along the chain named.

T1: Human ENTPD1 (NP_001767) expressed on NIH/3T3 cells (human, UniProt P49961 1-510)
T1 construct: also called NIH/3T3-ENTPD1; CD39
T1 sequence: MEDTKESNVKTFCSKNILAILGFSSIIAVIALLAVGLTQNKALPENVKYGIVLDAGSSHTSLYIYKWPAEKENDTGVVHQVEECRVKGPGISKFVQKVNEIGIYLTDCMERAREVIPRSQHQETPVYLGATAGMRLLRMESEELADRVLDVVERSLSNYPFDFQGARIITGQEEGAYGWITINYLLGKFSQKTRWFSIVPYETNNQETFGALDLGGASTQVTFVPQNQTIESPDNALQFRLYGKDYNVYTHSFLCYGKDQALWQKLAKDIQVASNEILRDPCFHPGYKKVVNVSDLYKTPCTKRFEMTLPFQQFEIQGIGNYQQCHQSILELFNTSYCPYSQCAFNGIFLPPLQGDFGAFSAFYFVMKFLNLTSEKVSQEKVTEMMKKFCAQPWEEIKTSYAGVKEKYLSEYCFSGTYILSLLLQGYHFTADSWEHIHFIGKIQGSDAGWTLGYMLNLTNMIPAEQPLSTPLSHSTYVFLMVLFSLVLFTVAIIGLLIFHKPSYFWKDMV

T2: ENTPD3 of H520 cells (UniProt O75355 1-529, limits assumed)
T2 construct: whole, on cells
T2 sequence (looked up): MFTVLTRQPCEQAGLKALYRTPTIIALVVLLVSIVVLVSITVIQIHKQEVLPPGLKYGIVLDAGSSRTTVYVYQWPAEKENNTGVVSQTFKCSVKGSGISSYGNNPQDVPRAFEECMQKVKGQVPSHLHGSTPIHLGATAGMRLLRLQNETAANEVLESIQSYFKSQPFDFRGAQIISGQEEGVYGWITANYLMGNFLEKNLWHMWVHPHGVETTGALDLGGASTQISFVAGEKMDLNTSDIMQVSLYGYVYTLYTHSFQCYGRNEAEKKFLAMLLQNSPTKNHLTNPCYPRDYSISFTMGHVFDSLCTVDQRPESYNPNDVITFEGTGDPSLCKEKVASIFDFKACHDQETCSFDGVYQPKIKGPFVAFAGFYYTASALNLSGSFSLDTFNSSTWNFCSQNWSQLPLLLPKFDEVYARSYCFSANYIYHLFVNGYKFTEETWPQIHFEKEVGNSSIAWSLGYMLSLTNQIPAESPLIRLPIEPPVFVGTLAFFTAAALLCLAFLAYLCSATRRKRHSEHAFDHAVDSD

T3: ENTPD8 of H520 cells (UniProt Q5MY95 1-495, limits assumed)
T3 construct: whole, on cells
T3 sequence (looked up): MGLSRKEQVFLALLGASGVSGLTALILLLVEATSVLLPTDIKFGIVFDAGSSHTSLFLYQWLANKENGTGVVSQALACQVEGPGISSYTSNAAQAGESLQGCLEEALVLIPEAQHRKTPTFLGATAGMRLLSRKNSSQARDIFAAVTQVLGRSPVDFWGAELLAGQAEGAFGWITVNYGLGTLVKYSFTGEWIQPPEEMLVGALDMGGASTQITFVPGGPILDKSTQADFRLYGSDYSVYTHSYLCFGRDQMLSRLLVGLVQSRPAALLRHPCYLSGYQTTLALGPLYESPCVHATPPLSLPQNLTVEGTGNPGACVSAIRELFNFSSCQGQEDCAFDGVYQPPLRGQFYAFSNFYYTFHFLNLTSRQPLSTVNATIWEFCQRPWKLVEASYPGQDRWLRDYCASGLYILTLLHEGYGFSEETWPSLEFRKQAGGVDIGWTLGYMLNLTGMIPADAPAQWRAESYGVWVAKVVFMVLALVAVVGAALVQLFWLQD

T4: human ENTPD2 expressed on cells (human, UniProt Q9Y5L3 1-495)
T4 sequence: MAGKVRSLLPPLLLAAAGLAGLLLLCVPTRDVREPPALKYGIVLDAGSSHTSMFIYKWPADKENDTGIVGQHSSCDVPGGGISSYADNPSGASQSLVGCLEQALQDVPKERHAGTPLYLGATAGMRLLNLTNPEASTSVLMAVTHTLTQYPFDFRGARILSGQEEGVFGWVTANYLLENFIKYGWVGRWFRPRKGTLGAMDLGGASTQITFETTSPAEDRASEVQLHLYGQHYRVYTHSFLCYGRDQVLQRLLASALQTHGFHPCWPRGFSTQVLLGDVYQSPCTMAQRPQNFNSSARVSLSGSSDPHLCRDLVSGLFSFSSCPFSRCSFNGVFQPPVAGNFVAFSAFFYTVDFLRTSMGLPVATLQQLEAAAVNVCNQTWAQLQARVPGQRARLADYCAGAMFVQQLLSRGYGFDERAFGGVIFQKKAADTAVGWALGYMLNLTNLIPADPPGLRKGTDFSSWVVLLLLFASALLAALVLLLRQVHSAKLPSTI

T5: cyno ENTPD2 expressed on NIH/3T3 cells (cynomolgus macaque, UniProt Q9Y5L3 1-495 (human entry))
T5 chain: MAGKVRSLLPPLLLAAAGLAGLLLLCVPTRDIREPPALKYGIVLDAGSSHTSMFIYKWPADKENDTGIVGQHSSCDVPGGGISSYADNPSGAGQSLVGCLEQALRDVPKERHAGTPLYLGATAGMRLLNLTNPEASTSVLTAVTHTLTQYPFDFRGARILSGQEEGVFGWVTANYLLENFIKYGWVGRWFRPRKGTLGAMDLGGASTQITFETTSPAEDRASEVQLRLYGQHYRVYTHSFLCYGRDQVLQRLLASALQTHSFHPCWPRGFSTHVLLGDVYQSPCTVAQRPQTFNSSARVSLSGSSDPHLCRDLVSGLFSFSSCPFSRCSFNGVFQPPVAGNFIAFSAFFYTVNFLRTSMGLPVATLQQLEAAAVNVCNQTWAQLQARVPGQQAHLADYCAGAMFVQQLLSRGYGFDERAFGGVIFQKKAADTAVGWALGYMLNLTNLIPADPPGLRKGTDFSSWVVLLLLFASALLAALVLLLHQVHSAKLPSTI

B1: ANTI-HUMAN ENTPD2 MAB1 (antibody, human IgG1, kappa)
heavy: not shown
light: DIQLTQSPSSLSASVGDRVTITCSASSSVSYIHWFQQKPGKAPKLLIYSTSNLASGVPSRFSGSGSGTFFTLTISSLQPEDFATYFCHQWSSYPWTFGQGTKVEIKRTVAAPSVFIFPPSDEQLKSGTASVVCLLNNFYPREAKVQWKVDNALQSGNSQESVTEQDSKDSTYSLSSTLTLSKADYEKHKVYACEVTHQGLSSPVTKSFNRGEC
notes: humanized from mAb17; human IgG1, kappa; also called anti-ENTPD2 mAb1
B2: ANTI-HUMAN ENTPD2 MAB4 (antibody, human IgG1, kappa, V domains shown)
VH: QIQLQESGPGLVKPSQTLSLTCTVSGYSITSGYYWNWIRQHPGKGLEWIGYISYDADNNYNPSLKNRVTISRDTSKNQFSLKLSSVTAADTAVYYCAGGYYRYGLGSYRGSYYYVMDYWGQGTTVTVSS
VL: ETVLTQSPATLSVSPGERATISCKASQSVDYEGHSYMNWYQQKPGQAPRLLIYAASNLESGIPARFSGSGSGTDFTLTISSVEPEDAATYYCQQSNEDPPTFGGGTKLEIKR
notes: humanized and optimized from mAb16; human IgG1, kappa; also called Anti-ENTPD2 mAb4
B3: ANTI-HUMAN ENTPD2 MAB6 (antibody, human IgG1, kappa, V domains shown)
VH: B2 VH with I2V, I49M, V68I, R109S
VL: DTQMTQSPSSLSVSVGDRATITCKASQSVDYEGHSYMNWYQQKPGKAPKLLIYAASNLESGVPSRFSGSGSGTDFTLTISSVQPEDFATYYCQQSNEDPPTFGGGTKLEIKR
notes: humanized and optimized from mAb16; human IgG1, kappa; also called Anti-ENTPD2 mAb6
B4: ANTI-HUMAN ENTPD2 MAB5 (antibody, human IgG1, kappa, V domains shown)
VH: B2 VH
VL: B2 VL with E32D, H34N
notes: humanized and optimized from mAb16; human IgG1, kappa; also called Anti-ENTPD2 mAb5
B5: ANTI-HUMAN ENTPD2 MAB2 (antibody, human IgG1, kappa)
heavy: not shown
light: EIVLTQSPATLSASPGERITLSCSASSSVSYIHWYQQKPGQAPRLLIYSTSNLASGIPARFSGSGSGTFYTLTISSVEPEDAAVYYCHQWSSYPWTFGGGTKLEIKRTVAAPSVFIFPPSDEQLKSGTASVVCLLNNFYPREAKVQWKVDNALQSGNSQESVTEQDSKDSTYSLSSTLTLSKADYEKHKVYACEVTHQGLSSPVTKSFNRGEC
notes: humanized from mAb17; human IgG1, kappa; also called Anti-ENTPD2 mAb2
B6: ANTI-HUMAN ENTPD2 MAB3 (antibody, human IgG1, kappa, V domains shown)
VH: QVQLVQSGAEVVKPGASVKISCKASGYTFTDYNMDWVKQAPGQRLEWIGDINPKYDISTYNQQFKGKATITVDTSASTAYMELSSLRSEDTAVYYCARRGFFLYYGINYYYFDVWGQGTLVTVSS
VL: EIVLTQSPATLSASPGERITLSCSASSSVSYIHWYQQKPGQAPRLLIYSTSNLASGIPARFSGSGSGTFYTLTISSVEPEDAAVYYCHQWSSYPWTFGGGTKLEIKR
notes: humanized from mAb17; human IgG1, kappa; also called Anti-ENTPD2 mAb3
B7: ANTI-HUMAN ENTPD2 MAB7 (antibody, human IgG1, kappa)
heavy: not shown
light: B5 light with R18E
notes: humanized from mAb17; human IgG1, kappa; also called Anti-ENTPD2 mAb7
B8: ANTI-HUMAN ENTPD2 MAB8 (antibody, human IgG1, lambda, V domains shown)
VH: QVQLQQSGPGLVKPSQTLSLTCAISGDSVSSSSAAWNWIRQSPSRGLEWLGRIYYRSKWYNDYAVSVKSRITINPDTSKNQFSLQLNSVTPEDTAVYYCARGSYVTSSYEGFDYWGQGTLVTVSS
VL: SYELTQPLSVSVALGQTARITCSGDNLPEKYAYWYQQKPGQAPVLVIYDDNKRPSGIPERFSGSNSGNTATLTISRAQAGDEADYYCQSYGKWGWTWVFGGGTKLTVLG
notes: also called Anti-ENTPD2 mAb8

Target: T1, Human ENTPD1 (NP_001767) expressed on …
Experiment: flow cytometry, NIH/3T3-ENTPD1 cells

binding result	Binder
no binding (tested: 50 nM)	B1
no binding (tested: 50 nM)	B2
no binding (tested: 50 nM)	B3
no binding (tested: 50 nM)	B4
no binding (tested: 50 nM)	B5
no binding (tested: 50 nM)	B6
no binding (tested: 50 nM)	B7

Target: T2, ENTPD3 of H520 cells
Experiment: flow cytometry, H520 cells

binding result	Binder
no binding (tested: 50 nM)	B8
no binding (tested: 50 nM)	B1
no binding (tested: 50 nM)	B2
no binding (tested: 50 nM)	B3
no binding (tested: 50 nM)	B4
no binding (tested: 50 nM)	B5
no binding (tested: 50 nM)	B6
no binding (tested: 50 nM)	B7

Target: T3, ENTPD8 of H520 cells
Experiment: flow cytometry, H520 cells

binding result	Binder
no binding (tested: 50 nM)	B8
no binding (tested: 50 nM)	B1
no binding (tested: 50 nM)	B2
no binding (tested: 50 nM)	B3
no binding (tested: 50 nM)	B4
no binding (tested: 50 nM)	B5
no binding (tested: 50 nM)	B6
no binding (tested: 50 nM)	B7

Target: T4, human ENTPD2 expressed on cells
Experiment: cell-based or functional assay

% inhibition, Human ENTPD2 NIH/3T3 Assay [%]	% inhibition, RKO Assay [%]	IC50, Human ENTPD2 NIH/3T3 Assay [nM]	IC50, RKO Assay [nM]	Binder
97	95	0.1	0.2	B8
92	97	1.1	0.8	B1
87	74	0.2	0.2	B2
95	90	0.3	0.2	B3
95	80	0.3	0.2	B4
98	86	1.4	0.8	B5
91	95	1.8	1.6	B6
95	92	0.8	0.6	B7

Target: T5, cyno ENTPD2 expressed on NIH/3T3 cells
Experiment: cell-based or functional assay

% inhibition, Cyno ENTPD2 NIH/3T3 Assay [%]	IC50, Cyno ENTPD2 NIH/3T3 Assay [nM]	Binder
96	0.9	B8
91	4.1	B1
75	2.2	B2
73	3.3	B3
80	1.5	B4
84	2.7	B5
84	5.8	B6
82	2.7	B7
